{"source": "patent US20240216484A1", "target": "SARS-CoV-2 spike protein, extracellular domain (1-1213), recombinant from HEK293 cells (SARS-CoV-2) (UniProt P0DTC2)"}
{"substance": "HZI 2-09 (Anlec in TBS; lectin batch isolated from bromelain)", "values": [{"measurement": "Kd", "result": 8.25, "unit": "µM"}, {"measurement": "koff", "result": 0.003, "unit": "s⁻¹"}, {"measurement": "kon", "result": 331, "unit": "M⁻¹ s⁻¹"}]}
